Source: article PMC5428420, “The trimer interface in the quaternary structure of the bifunctional prokaryotic FAD synthetase from Corynebacterium ammoniagenes” (Scientific Reports, 2017)

Molecular target: the molecule itself
Test: SEC; oligomeric fractions, 15-20 µM protein, incubated 10 min at room temperature in buffer only (20 mM PIPES, 0.8 mM MgCl2, pH 7.0), then passed again through Superdex 200 10/300 GL

B1: FAD synthetase from Corynebacterium ammoniagenes, wild type (enzyme)
chain: MDIWYGTAAVPKDLDNSAVTIGVFDGVHRGHQKLINATVEKAREVGAKAIMVTFDPHPVSVFLPRRAPLGITTLAERFALAESFGIDGVLVIDFTRELSGTSPEKYVEFLLEDTLHASHVVVGANFTFGENAAGTADSLRQICQSRLTVDVIDLLDDEGVRISSTTVREFLSEGDVARANWALGRHFYVTGPVVRGAGRGGKELGFPTANQYFHDTVALPADGVYAGWLTILPTEAPVSGNMEPEVAYAAAISVGTNPTFGDEQRSVESFVLDRDADLYGHDVKVEFVDHVRAMEKFDSVEQLLEVMAKDVQKTRTLLAQDVQAHKMAPETYFLQAES
notes: Bifunctional FAD synthetase (N-terminal FMNAT module, C-terminal RFK module) from Corynebacterium ammoniagenes, CaFADS; Plasmid pET28a-CaFADS; The size of the oligomers was not resolved by gel filtration; also called CaFADS; WT CaFADS; source: E. coli BL21(DE3), purified (20% ammonium sulfate fractionation, phenyl-sepharose, DEAE-cellulose)
Question: How did the monomer/oligomer ratio turn out when B1 was run?
Answer: ~0.8
